Measured values published in paper PMC5303823, “DEK-targeting DNA aptamers as therapeutics for inflammatory arthritis”.

Biological target: T1, DEK (recombinant, baculovirus) (UniProt P35659 1-375)
T1 sequence: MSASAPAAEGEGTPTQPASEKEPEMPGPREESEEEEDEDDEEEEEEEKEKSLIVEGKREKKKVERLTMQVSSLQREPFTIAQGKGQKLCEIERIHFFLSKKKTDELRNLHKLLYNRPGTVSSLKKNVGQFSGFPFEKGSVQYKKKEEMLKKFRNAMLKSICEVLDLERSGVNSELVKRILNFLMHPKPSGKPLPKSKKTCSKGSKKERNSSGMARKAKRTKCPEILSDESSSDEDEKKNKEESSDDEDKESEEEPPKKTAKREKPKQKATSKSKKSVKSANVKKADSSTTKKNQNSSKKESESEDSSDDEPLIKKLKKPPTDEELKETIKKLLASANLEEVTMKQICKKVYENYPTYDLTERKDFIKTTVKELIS
Experiment: pull-down, biotinylated aptamer on magnetic beads, immunoblot; two DEK concentrations, overnight 4 C; Selection and dot blot: 20 mM Tris pH 7.6, 100 mM NaCl, 5 mM MgCl2 (selection at room temperature; dot blot with 100 ug/ml salmon sperm DNA); pull-down: overnight at 4 C, PBS washes
Details: protein: recombinant; tags: His tag (SELEX resin); label: biotin (pull-down on magnetic beads)

GGGGTTAAATATTCCCACATTGCCTGCGCCAGTACAAATAG (ssDNA) [DTA-64]: binds.
